Two molecules from paper PMC2729916 (Nature, 2009) can be followed below.

Common to all, as to assay: far-Western, overlay or dot blot
The target of one experiment is T1, E. coli UvrA (E. coli, UniProt P0A698 1-940).
T1 sequence (looked up): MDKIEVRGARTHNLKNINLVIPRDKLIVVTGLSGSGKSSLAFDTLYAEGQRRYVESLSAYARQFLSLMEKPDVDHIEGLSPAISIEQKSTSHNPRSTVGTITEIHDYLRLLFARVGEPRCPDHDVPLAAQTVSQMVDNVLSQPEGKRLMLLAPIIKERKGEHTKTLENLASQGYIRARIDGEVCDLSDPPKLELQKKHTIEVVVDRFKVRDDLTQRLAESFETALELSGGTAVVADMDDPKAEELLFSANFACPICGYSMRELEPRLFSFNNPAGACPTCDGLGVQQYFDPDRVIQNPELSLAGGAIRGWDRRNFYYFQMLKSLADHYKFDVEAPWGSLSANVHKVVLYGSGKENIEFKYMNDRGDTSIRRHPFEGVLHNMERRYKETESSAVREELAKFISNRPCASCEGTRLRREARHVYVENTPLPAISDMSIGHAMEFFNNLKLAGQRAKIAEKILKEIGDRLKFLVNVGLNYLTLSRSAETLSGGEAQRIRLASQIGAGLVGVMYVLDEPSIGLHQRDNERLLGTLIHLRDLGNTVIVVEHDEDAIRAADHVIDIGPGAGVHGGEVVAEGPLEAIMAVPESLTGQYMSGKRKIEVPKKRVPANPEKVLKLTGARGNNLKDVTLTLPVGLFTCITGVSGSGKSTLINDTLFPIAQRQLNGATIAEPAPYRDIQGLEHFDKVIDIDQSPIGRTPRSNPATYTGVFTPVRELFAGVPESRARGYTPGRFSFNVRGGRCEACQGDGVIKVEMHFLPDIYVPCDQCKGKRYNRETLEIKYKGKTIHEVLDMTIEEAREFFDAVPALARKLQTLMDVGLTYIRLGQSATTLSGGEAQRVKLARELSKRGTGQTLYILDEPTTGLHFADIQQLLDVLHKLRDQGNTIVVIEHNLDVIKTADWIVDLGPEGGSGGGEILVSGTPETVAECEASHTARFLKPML

The next experiment has as its target T2, E. coli UvrC (E. coli, UniProt P0A8G0 1-610).
T2 sequence (looked up): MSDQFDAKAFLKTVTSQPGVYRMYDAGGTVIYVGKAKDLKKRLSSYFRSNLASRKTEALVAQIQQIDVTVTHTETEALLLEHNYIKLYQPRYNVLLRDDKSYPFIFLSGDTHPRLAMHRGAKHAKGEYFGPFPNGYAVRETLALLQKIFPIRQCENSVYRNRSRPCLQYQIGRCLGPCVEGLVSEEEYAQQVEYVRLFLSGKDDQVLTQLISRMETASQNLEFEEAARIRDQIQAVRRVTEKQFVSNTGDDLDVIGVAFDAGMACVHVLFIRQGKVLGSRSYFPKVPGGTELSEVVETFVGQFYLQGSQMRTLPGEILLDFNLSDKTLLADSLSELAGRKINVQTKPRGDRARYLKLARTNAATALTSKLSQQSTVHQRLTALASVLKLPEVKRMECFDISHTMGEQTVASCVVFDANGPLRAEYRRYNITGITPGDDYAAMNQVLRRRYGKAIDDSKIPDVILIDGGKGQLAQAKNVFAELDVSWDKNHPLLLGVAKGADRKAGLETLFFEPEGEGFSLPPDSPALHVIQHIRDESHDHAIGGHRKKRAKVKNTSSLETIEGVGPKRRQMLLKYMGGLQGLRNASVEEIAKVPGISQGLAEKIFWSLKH

In another experiment the target is T3, FLAG-UvrA (E. coli) (E. coli, UniProt P0A698 1-940).
T3 sequence (looked up): T1 sequence (looked up)

B1: FLAG-eAtl (E. coli alkyltransferase-like protein) (natural protein, UniProt P0AFP2 1-129, looked up)
chain: MLVSCAMRLHSGVFPDYAEKLPQEEKMEKEDSFPQRVWQIVAAIPEGYVTTYGDVAKLAGSPRAARQVGGVLKRLPEGSTLPWHRVVNRHGTISLTGPDLQRQRQALLAEGVMVSGSGQIDLQRYRWNY
In the case of B1, the binding result with E. coli UvrA and with E. coli UvrC was “binds” each time.

B2: S. pombe Atl1 (alkyltransferase-like protein 1) (natural protein)
chain: MRMDEFYTKVYDAVCEIPYGKVSTYGEIARYVGMPSYARQVGQAMKHLHPETHVPWHRVINSRGTISKRDISAGEQRQKDRLEEEGVEIYQTSLGEYKLNLPEYMWKP
As to B2, the binding result with FLAG-UvrA (E. coli) was “binds”.
